The values below come from the supplement of paper PMC9942255.

In the data set the test system is Bacillus subtilis DB104 (SP-AmyQ fusion secretion). Put plainly: AmyQ secretion efficiency, weighted average sort bin (1 = best secretion, 10 = worst) (bin number (weighted average, 1-10)); higher = lower secretion efficiency. The gist of the method:
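A B. subtilis DB104 library carrying amyE-integrated fusions of designed signal peptides to mature AmyQ was encapsulated at about 0.3 cells per ~65 nL alginate bead with fluorescein-starch and grown about 13 h at room temperature. Following nile red staining, occupied beads were flow-sorted as large particles into 10 equally populated bins by green/red fluorescence ratio, and the bin amplicons were Illumina-sequenced. The secretion score is the read-frequency-weighted average bin number normalised to beads per bin, leaving out low-abundance sequences.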

Several values for one entry are separate records, joined by “and”; a condition that tells them apart may be missing. Equal entries are not always repeated.

For the sequence “MKRSIMLSNIIILLVSLRVWMVFLMNWVTPDRKTAAAAVY”, the AmyQ secretion efficiency worked out at 6.91. Regarding MKKKQVMLALTAAAGLGLTALHSAPAAKPAPL, the AmyQ secretion efficiency was 4.99.

On to MKRSISIFITCLLITLLTMGGMIASPTSAAGT, for which the AmyQ secretion efficiency turned out to be 2.97. As to MNLRKILLSSALSLGMLVSAAPTLATSS, the AmyQ secretion efficiency was determined as 2.34.

MKKTIMSFVAVAALSTTAFGAHASPKEI came in with an AmyQ secretion efficiency of 3.96. On to MKSCKQLIVCSLAAILLLIPSVSFGADS, for which the AmyQ secretion efficiency came to 3.57. As to MKSCKQLIVCSLAAILLLIPSVSFSADS, the AmyQ secretion efficiency stood at 4.65. As for MKKLVLCVSILAVILSGVWLTQLS, the figure is 5.87; as for MKKRKVMLATALFLGLTPAGANAADL, 4.31. As for MKVPKTMLLSTAAGLLLSLTVSAHYV, the figure is 5.02; as for MKKWLIIAVSLAIAIVLFMYTKGEAKVAGM, 5.3. The sequence MKSKGSIMACLILFSFTITTFINTETISHFSN showed an AmyQ secretion efficiency of 7.54.

In turn, MRKKKRHSRLIVLLFFSFFGVQPIHAKKQ registered an AmyQ secretion efficiency of 7.01. Sequence MKRIRIPMTLALGAALTIAPLSFLSAEEN registered an AmyQ secretion efficiency of 4.62. For the sequence MKRFLIGAGVAAVILSGWFIADHQTHGQEM, the AmyQ secretion efficiency was 5.37. MKRRLSTLLIGIMLLTFAPSAFAKQD displayed an AmyQ secretion efficiency of 1.82. Sequence MAIIIAIIAAVIVIAALITFNVRNFSPG came in with an AmyQ secretion efficiency of 6.5. In turn, MKKKQVMLALTAAAGLGLTALAIVSSFVHSAPAAKAAPL registered an AmyQ secretion efficiency of 5.73. As for MKKTIMSFVAVAALSTTAFGAHPTASAKEI, the figure is 2.53.

MKSKGSIMACLILFSFTITTFINTETSSVFTPISAFSN: the AmyQ secretion efficiency worked out at 6.5. MKKAKRKRLSVVLVTTVFLVKQQESVAQAKQL gave an AmyQ secretion efficiency of 5.44. With “MKKWMITIAMLILAGIALFVFISPPPFFTAVPSTVLKSHKT”, the AmyQ secretion efficiency stood at 6.23. As for MLKRTSFVSSSSLFISSAVLLSILLPSGQAHAQSA, the figure is 1.71. Then MIAYFGKCLLLVTIMFLGVLFGMHQANHG, with 6.41.

In turn, MLKKIALTLCPAIVGSLLFFTAPASSHVS showed an AmyQ secretion efficiency of 4.06. Then MKKQIITATTAVVLGSTLFAKKASAQSI, with 6.18; and MFNRLFRVCFLAALIMAFTLPNSVYLQKP, with 6.77; and MIVLSTIITFNFIILLFISIIVFLSVIQPQPS, with 5.66. Take MKLKKRVSMGLVALTMCGGLFVTPAKAVKT: the AmyQ secretion efficiency amounted to 2.55. Sequence MTKLKMLSMLTVMIASLFIFSSQALSVQY returned an AmyQ secretion efficiency of 2.56. As for MKKLLAAGIIGLLTVQTDQPSFAAEK, the figure is 4.21; as for MLCVMMLLFSAIASFPVSAQIKDQ, 5.57.

With MKRFKKKKSFLSIIVAYPIQTNASPM, the AmyQ secretion efficiency worked out at 5.88. As for MKLRKVLTGSVLSLGLLKRRRKKAFATSP, the AmyQ secretion efficiency came out at 5.35. Regarding MNKFLKSNFRFLLAAALGISLLGESNPIKASND, the AmyQ secretion efficiency was found to be 1.52. Then MKKAFILSAAAAVGLFTFGGVQQISAKEL, with 3.06; and MKKLIVLLFFSFFGVQPIHAKKQ, with 5.47; and MKSKWMSGLLLVAVGFSFTQVMEHAGET, with 7.11. Then MTKKAWFLPLVCVLLISGWLAPAASASAQTD, with 1.97; and MKKAAAVLLSLGLVFGFSYGAGHVAENKTK, with 4.78.

The sequence MFNRLFRVCFLAALIMAFTLPNSVYSQKP returned an AmyQ secretion efficiency of 3.32.

Consider MGKWIYVVLVLSIAGIGGFSVHAASS, for which the AmyQ secretion efficiency came out at 6.5. MKKAAAVLLSLGGFSYGAGHVAEAKTK gave an AmyQ secretion efficiency of 6.38. Then MKRLFMKASLVLFAVVFVFAVKGAPTKAETH, with 2.27; and MTMLRKIIGWILLLCIIPLFAFTVIGSGKEV, with 6.78; and MKKQIITATTAVVLGSTLFAKKRASAQSI, with 7.26. Sequence MLKRTSLFISSAVLLSILLPSGQAHAQSA showed an AmyQ secretion efficiency of 2.05. In the case of MKMKSGMEQAVSVLLLLSRLPVQASNTSE, the AmyQ secretion efficiency amounted to 5.73. For MKRLLSTLLIGITFAPSAFAKQD, the AmyQ secretion efficiency worked out at 2.73.

For the sequence MAIIIAIIAAVIVIAALITFNVRNQSPG, the AmyQ secretion efficiency amounted to 9.31.

MAIIIAIIAAVIVIAALITFKKRRKRNASPG yielded an AmyQ secretion efficiency of 8.46. Turning to MIIWIYVVLVLSIAGIGGFSVHAASS, the AmyQ secretion efficiency was 7.11. As to MKTKTLFIFSAILTLSIQAPNETFAQTA, the AmyQ secretion efficiency is 2.35. Then MGLGKKLSVAVAASFMSLSISLPGLQAAEG, with 1.65; and MKKKQVMLALTAAAGLGLTALHSAPAKKAAPL, with 5.87. MNLRKILLSSALSLGMLVSAAPGLATSS came in with an AmyQ secretion efficiency of 3.12. Take MPYLKRVLLLLVTGLFMSLFAVTATYSAQTG: the AmyQ secretion efficiency is 3.91. MRSYIKVLTMCFLGLILFVPTPLADNS: the AmyQ secretion efficiency came out at 5.93. Sequence MKQIMIFLTSFMMTGQTALAKDV returned an AmyQ secretion efficiency of 3.81. Take MKRLCLWFTVFSLFLVLLPGKALYAVD: the AmyQ secretion efficiency came out at 4.11. Turning to MKVLLSALLLLLFAFAASASGKKL, the AmyQ secretion efficiency came to 6.06.

MHLIRAAGAVCLAVVLIAGCRFNEDQAEGENT had an AmyQ secretion efficiency of 5.78. MRKKRTIFAFLTGLMMFGTITAASASPD: the AmyQ secretion efficiency is 4.56. “MKKTSSFNFSSTAFLVFLSVVLVTTVFLVKQQESVAQAKQL” showed an AmyQ secretion efficiency of 2.65.

Sequence MRPVFPLILSAVLFLSCFFGARQTEASDSKR registered an AmyQ secretion efficiency of 2.12. Then MMMWLIIAVSLAIAIVLFMYTKGEAKAAGM, with 6.9. As for MKLWMRKTLVVLFTIVTFGLVSPPAAGMADKP, the figure is 3.4; as for MKRFSTAYLLLGILCSAAVFLIKRPSRALGAEV, 6.46; as for MGLGKKLSVAVAASFMSLSISLPGVQAAPR, 2.88. Sequence MKKVLMAFIICLSLILSVLAAPPSGAKLESV showed an AmyQ secretion efficiency of 8.94. MKKGIIRFLLVSFVLFFALDEDITGVQAAPA displayed an AmyQ secretion efficiency of 3.78. Regarding MKKKQVMLALTAAAGLGLTALHSAPAVAGAAKAAPL, the AmyQ secretion efficiency was found to be 2.43. As for MKLAKRVSALTPSTTLAITSKAKEL, the figure is 8.31; as for MRSYIKVLTMCFLGLILFVPTALAAEE, 3.07.

In turn, MRPVFPLILSAVLFLSCFFGARQTESFASASKR registered an AmyQ secretion efficiency of 4.97.

MKKKQVMLALTAAAGLGLTALHKRPAAKAAPL had an AmyQ secretion efficiency of 6.71. As to MTKKAWFLPLVCVLLISGWLAPAASASGQTT, the AmyQ secretion efficiency turned out to be 1.87.

The sequence MKRFSTAYKQQRQQCSAAVFLIGAPSRALGAEV showed an AmyQ secretion efficiency of 7.51. Then MHLIRAAGAVCLAVVLIAGCRFNEDQHQAEHENT, with 3.89.

Consider MKKRLIAPMLLSAASLAFFAEEESAQAAAY, for which the AmyQ secretion efficiency came to 2.27.

MKKTLAAGIIGLLTVSIASPSFAAEK: the AmyQ secretion efficiency was determined as 2.62. As for MMKKLFHSTQGRQSFFSFFGVQPIHAKKQ, the figure is 7.5. Then MKKRKRRNFKRFIAAFLVLALMISLVPADFLAKST, with 4.42; and MGLGKKLSVAVAASFMSLSISLPGVQLAEG, with 4.12.

As for MFNRLFRVCFLAALIMAFTLPNSVYFQKP, the AmyQ secretion efficiency turned out to be 7.24. Then MKKKQVMLALTAAAGLGLTALHSAPAPKAAPL, with 6.78; and MKLWMRKTLVVLFTIVTFGLVSPPAAQMADKP, with 1.81; and MPIKKKVMMCLAVTLVFGSMSFPTLTNSGGFSG, with 3.08. In the case of MKNMSCKLVVSVTLFFSFLTIGPLAHFQNS, the AmyQ secretion efficiency came out at 5.82. Then MKVLLSALLLLLFAFEPSASKKKL, with 6.2; and MKKGIIRFLLVSFVLFFALSTGITGSQAAPA, with 4.62; and MKKKLAAGLTASAIVGTTLVVAEAATI, with 5.78. Sequence MPRKKKQKYRCLAVTLVFGSMSFPTLTNSGGFKE had an AmyQ secretion efficiency of 6.94.

In turn, MKRLLVSLRVWMVFLMNWVTPDRKTAAYAVY came in with an AmyQ secretion efficiency of 7.68.

Take MKKRKRRNFKRFIAAFLVLALMISLVPADILAKST: the AmyQ secretion efficiency is 1.87.

Sequence MKLRKVLTGSVLSLGLLVSASPAFATRK came in with an AmyQ secretion efficiency of 2.53.

MKRLTLVCSIVFILFILFYDKDEASAKTA: the AmyQ secretion efficiency is 1.77.

On to MKKMLMLAFTFLLALTIHVGEASAVRK, for which the AmyQ secretion efficiency worked out at 2.01. As for MKNMSCKLVVSVTLFFSFLTIGPLCHAQNS, the figure is 1.32; as for MLGKIALTLCPAIVGSLLFFTAPASAHVS, 2.47.

For MKIRKILLSSALSFGMLISAVPGLAAGT, the AmyQ secretion efficiency came to 3.97. As for MNKKYQTGQVCIIFTSALFPTFSSVTAAQG, the figure is 3.64; as for MRIFKKAVFVIMISFLIATVNVNTAHAAID, 3.53 and 3.56 and 3.38; as for MTRLLSTLLIGIMLLTFAPSAFAKQD, 1.6. In turn, MKKFLVALTMCGGLFVTPAKAVKT showed an AmyQ secretion efficiency of 3.65. Take MAIIIAIIAANVRNASPG: the AmyQ secretion efficiency worked out at 7.68. On to MKKRKITIAMLILAGIALFVFISPLKSHKT, for which the AmyQ secretion efficiency is 6.94. Then MKWMCSICCAAVLLAGGAFQAEAV, with 4.41; and MKKTTNVLMAFIICLSLILSVLAAPPSGAKAESV, with 2.36.
